We go through 19 sequences from a protein production outcome set (Wang et al. 2014).

The data set is described as follows: label from the status in PepcDB records.
For “MSLVKKSSNVIAAVVSSVRTNFAQQILDGIQEEAHKNGYNLIIVYSGSADPEEQKHALLTAIERPVMGILLLSIALTDDNLQLLQSSDVPYCFLSMGFDDDRPFISSDDEDIGYQATNLLINEGHRQIGIAGIDQYPYTGRKRLAGYKKALKEANIAINQEWIKPGDYSYTSGEQAMKAFGKNTDLTGIIAASDMTAIGILNQASSFGIEVPKDLSIVSIDGTEMCKITRPQLTSISQDFFQMGVTGVQQIHQSVKNGSNRIVSQQFIPVNPVIRKSTARLGEGHHHHHH”, the protein production result was “not failed”.
For the sequence “MSLVNNFTVKKVRSSNLELLRLLSMFFVLVVHADFQALGMPDRTEMTILPLFSVFRIIIEAFAIVCVNSFVLLSGWFGINFHIKSLCNLLFQCAFFLIGIYTFTILIGIEPLSISGIKRCLMLTNNVWFVKCYLGMFIMAPILNAFVEKTDKRTFSTVLLSFFIFQTIYGWFSNGAPYFEKGYSAFSFMGLYLLARYVRIYQPSYTQWSKSKNLLMYISLSTFTALMLIITCYFDKVGYFCMFWTYTSPLVIAGALYLLLFFNRFAFQNKGINWIAASCFAVYLFHFFIWEYFMKPHIQQLAVTYNGISCLLVITGLLLTFFTAAILIDKIRLYIWNHFVSKYIS”, the protein production entry is “failed”.
As for “MSLWRLPMTLKTMTLAFAVTGLGVLAGSSPSVVQQRDGSQVVTPDEPKYNEDTGFYEYEKDGHKVQMNKDDVKTIEEVKLEHHHHHH”, the entry is “not failed”; as for “MSLYKQLLIAICLFVLIIFSGSFFVSLENSREQYNNQLHSHAQDAATALGLSLTPNIDDPAMVELMVSSIFDSGYFSSIRVRDLKTGNVTLERTASPDIPDVPLWFVQLVDLQPGAGEAIVMRGWEQAAKVEVVSHPMFAVTRLWRSSTATFLWLLGCGTLGVLIGALFLRRQLRPLDYIVDQSLAITRREFLSQPDLPNTPEFRRVAQAMNLMVSKLKTLFEEEAERSERLRQEAYQDPQTGLNNRRAFDMQFNDKLADEETAPGFLIMIRVQDLAGMNQRLGGQRTDALLASVGHILRKTQKQHTNTESLLARIRGGEFALFCPGLVDKEVYALIGELTRNIETLHLTGETDVSPVAQFGMVPFRPGDTAQSLFIQGDQALTRAESDTDTTAPYEIPLAGAEQVETDRHMWFNLLDPILEQERLQLFLQPVVACDDPSQVLHHKVLARIQDEQGNSIAAGRFLPWIQRFGWDTRLDQTMLREVLDYLRQHDGNLALSLSGTTVLNLHLLADLLAPLKHQPEVARRLILELDENQLPDSAQLETLIKLLNEHGCALGLQHFGGRFNMIGNLSQWGLAYLKVDGSYIRNIDQEGDKQMFIEALYRATNSIALPLIAERVETAGELKVLQEMGLQGAMGRLLGEPMPAVRA”, “failed”.
As for “MSLYTFKELKRATKQDTVSLPKLKVALLGDTATQLLATAIKGEGILRNYNIELWEAEYNQVERQIMDPTSDYYQFEPDYTIIFHSTHKLLEKHSLVNSDLQNKLADDRLDFVRLLCEQGIGRVIYYNYPEIEDTIWGSYATKVQSSFTYQLTKLNYELMNISQAYPNFFICNLAGISAKYGRNFMFDSSVYVNTEIILSLDALPIISSRTIDIIAAIQGKFKKCLILDLDNTIWGGVVGDDGWENIQVGHGLGIGKAFTEFQEWVKKLKNRGIIIAVCSKNNEGKAKEPFERNPEMVLKLDDIAVFVANWENKADNIRTIQRTLNIGFDSMVFLDDNPFERNMVREHVPGVTVPELPEDPGDYLEYLYTLNLFETASFSEGHHHHHH”, the entry is “not failed”.
As for “MSMESKSKRRSPPSSTLEEEVPGKTIHPEDPKITSKNFENPTKETSIQSPIKNSIKPSWNPEPKITRTSIWDIESAGGDSIQNDCQSECNVEDQGHEQEVTLETRIFSGTSDRIEPHRHYGVYLLRNRFDAIQLLTRNTSSSADDYGERRVISEYREMRCEFRVWSPFQSKLAAGIMGGVSDLHLQIGSKVLYLGAGFGRSVSHISDIVGDSGMVYAVEQIPWAGRQLTIMANRRSNIVPIVEDATMPYKYRYEVPACIDIIFADLPPSVLIRALMLNARHFLNPGGHFVAYLHSPTSQGVVFNKDSFAAERRLLKEKQLEPKEMVLLEPFKAGYAFVVGVYIRKDVSL”, the entry is “failed”; as for “MSMNDTYQPINCDDYDNLELACQHHLMLTLELKDGEKLQAKASDLVSRKNVEYLVVEAAGETRELRLDKITSFSHPEIGTVVVSES”, “failed”; as for “MSMNSEPTPAEAFFLEGNRLLAASECRAAEACFREALALAPDFAEAHANLGMLLDQEGMAAEAERQYRLALALNPRLGHTHSNLGVLLANQKRFEEAESAYLSAIELEPDSPAAWSNLGVLQACRKQEREAEESYRTALRLDPDYHRASFNLSYLLLRQGRFDEGWSLLESRNRRWFARLEEHLPCPRWRGEDLQGRSLLIGLEAGHGDMIQFCRYAPLLKDRGAARITLVCHVALKDLLKTLDGVDTVISFDEILPDDAWDFWTPAMSIPCYCRTRLDSIPARIPYLHADPGLAEQWAAMLEREWAGPEMRIGLAWKGNPHFENDGDRSLPHLKTLEPLGAVAGVRFFSLQKGAGEEEAAQPPAGLPVVNLMRHIAGFADTAALVANLDLVITVDTAVAHLAGALGTECWVLLPEYRTDWRWLTGRTDSPWYPGVMRLFRQPRVGDWETVVAEVGEALRLFAARPRSPRGTR”, “failed”.
As for “MSMVVNSSDQAITMESLGISGHCDDVFCNELTATVIGEMTKRPTRLDIPIGVDGFVAPISSSADVTVTSREECREVEREGYEDTVNNEEISKPKSMKLLAHAGDDESIKRQENEDDDGRTTVDDDDGRGRINVSRLKALLMITTRE”, the protein production result is “failed”.
Regarding “MSNCWKNVLVKPACTLLDALEIINDEALRVVLVVDESDSLLGVVTDGDIRRGLLRNLPLTADIAQVMNTTPYTAAIDTPRDELIAIMESNDILSIPLLDNGKVVGLETLHHALSTPVYENPVFIMAGGFGTRLRPLTDHCPKPMLKIGDKPILETVIRNFIKAGFINFYISTHYMPELIHQHFGDGSTLGVKITYVHEQSPLGTGGALGLLPKELPKDLPLIMMNGDVLTKVDFQRLLEFHTEHDADATMCVREYDYQIPYGVIKGEGNRITSMVEKPIQRFFVNAGIYVVSPVVIQSVPENHHIDMPTLLEQHMNKRNNVLMFPIHEYWLDIGRMDDFNRAQTDIYTLGL”, the protein production entry was “failed”.
For “MSNDKTPNSPESTPSTPADEVLDGLLAELSPEASAEPNPADDSGNPFTTIFKSVTDKATELGSAATEGLSNLQESATELAAETKEKFGNFAEAHKDDLGQLLTSAQGKAASFGEAVSDRFGELGESATESFGNLQEGAAGFAAGAKEKFGDFAEASQEKLSEIAETTQDKAASFGEAVSDRVEGLRGSAAEKLGNLQEGASELAAGAKEKFGDFAEASQEKLSEIVETTQGKAASFGEAVSDRVEGLRGSAAEKLGNLQEGASELAAGAKEKFGDFAEASQEKLSEIVETTQGKAASFGEAVSDRFGELGESAAEKLSNLQEDASEFAASAQEKLSTFTNARQEELGNLTKSAQSDVQDTANTVSEQLEQAPEAVSTAADSLKGAQEKLEAAVVASQSVAEKLKPAEVQSQSSLQLASESPSPSFFGRLLRKIKGFFRKLFG”, the protein production entry is given as “failed”.
Take “MSNGGSFTVEKLSLYGNPNIGVYLTASDSYVLAPDDIGADDVRTISEVLGVAMERVVRLRVLGMRLVGVLTTGNSRGILLPEGVDREVELVRKALEGVEVGIVPTRSNALGNVIVCNDRACLASPGLEKEALKTVSDTLGVEVVEGSVAGVYTVGSAIVVTNRGGLAHPDASEEELKFLSDVFKVPFEAGTINFGVEFVRTGLVANSYGALVGEDTTGPEIARIQVALGGGVK”: the protein production result is “failed”.
“MSNHEEKKQHVALSSVAASLLLTAMKLVVGLMTGSIGILSEAAHSAIDFGAAALTWFAVRISDKPADKKHHYGHTKIESVSALIETGLLILTSVWIIYEAVTRLLSGTTEIEVTWYAIAVIIISIIVDISRASALKKVAKETKSQALEADALHFTSDIVSSAVVLAGLGFVALGMHWADAVAGIFVAVLVGKAAWELGRKTIDVLIDTAPEGLSEQIEEIVVNAPGVIGINKMRIKPAGGPFVFIDLTISVSRTLPQEKVVAICAGVEQRLKAALPDSDITVNARPVVLDSETVTERIHTIGLNHGLHAHNILTSLSGDHKQITFDVEVDSRLTIRQAHDAVTELENELHREFNEEIDLCIHLDPINSEERNVQPADPENEARITALIRQAASTIPGILNVHALKIHVLSYNKLCITLHCGFDDNTVLADVHPLTSRLECLIYRDIPETSRIIVHAEPVNAGD”: the protein production entry is recorded as “failed”.
Take “MSNHQKRLSVPNSWPVERKTATFTVKAGAGPHGESGVPLLIVLRDVLGYADNRKEARYALNEDNVLINGKAISDEERPVGMFDILAFTEREEYYRVFPGEGGRLALTAIDPDAAQSKLGKIVTKTHVSGGDVQLGLHDGETLIVEDDQTYDAGDSIVVGNEDGEVVAHFEYEEGALVTAVDGAHAGEVGEVEEIQVTPGSAQNNVIVSQDEGEGFETVEEYVVVIDENFTGDDELEHHHHHH”: the protein production result was “not failed”.
“MSNKIVTLEINLEPSDNRRLASLCGPFDDNIKHLERRLGVEINHRSDHFTIVGKPHTSAAALDILKTLYVDTAPVRGEIPDIEPEQIHLAIKESGVLEQNTESSIAHGKEVFVKTKKGVIKPRTPNQAQYLVNMVTHDISFGIGPAGTGKTYLAVAAAVDALERQEIRRILLTRPAVEAGEKLGFLPGDLSQKVDPYLRPLYDALFEMLGFERVEKLIERNVIEVAPLAYMRGRTLNDAFIILDESQNTTVEQMKMFLTRIGFNSRAVITGDVTQIDLPRGAKSGLRHAIEVLSEVDDISFNFFQADDVVRHPVVARIVNAYEKWEAQDQKERKEFEKRRREERDAKLLEAAKAELSAQVAATKE”: the protein production result is listed as “not failed”.
Turning to “MSNVIASLEKVLLPFAVKIGKQPHVNAIKNGFIRLMPLTLAGAMFVLINNVFLSFGEGAFFYSMGIRLDASTIETLNGLKGIGGNVYNGTLGIMSLMAPFFIGMALAEERKVDALAAGLLSVAAFMTVTPYSVGEAYAVGANWLGGANIISGIIIGLVVAEMFTFIVRRNWVIKLPDSVPASVSRSFSALIPGFIILSIMGIIAWALSNYGSNFHQIIMDTISTPLASLGSVVGWAYVIFVPLLWFFGIHGSLALTALDSGIMTPWALENISIYQQYGSVDAALEAGKTFHIWAKPMLDSYIFLGGSGATLGLIIAIFLASRRADYRQVAKLALPSGIFQINEPILFGLPIIMNPVMFIPFILVQPILAAITLVAYYLGIIPPITNIAPWTMPTGLGAFFNTNGSVAALLVALFNLAVATLIYLPFVVVANKAQNAIEQEESEEDIANALKF”, the protein production result was “not failed”.
For “MSNVSALPIQPETTPSGGGSVRDRVSPQEWEVRVKLAAAYRLAALKRWTDHIYTHFSARVPGPDEHFLINAFGLLFDEITASNLVKVDIDGTIVDDPTGLGINYAGYVIHSAIHAARHDLQAVLHTHTRDGIAVSAQKGGLLPISQHSIAFSGRVAYHGYEGIALDLSERERLVADLGDKSVMILRNHGLLTGGVSVEHAFQQLHALEYACNIQIAAQSAGNDELVFPPQEVIARVEEQAKVIKDGHGPGVARHWNALIRELERSGTDYRE”, the protein production result is “failed”.
Take “MSNVVWTNFGRSSPDRMRARGGKLMAEPDFEAQLTRMFAQAPSFPDAALFNAEVMAKLDRGWAMRRMFIAVAGTGAGLIGAFQIFGSRFSNELAQLSREGSHGLETEINGGWAKLTALLSTPSSAEAVWLAAGLAVVALAFAVTRLVEDF”: the protein production result is “failed”.
As for “MSNWNLDNFDNLHSSLAESAYNSRPNSFPELFETDSVTEVKFSQPSEDNKGQITQGGTNLPNDGIVYLQPDKSLKSIDENVKVLIPDVNGGYHTEHYVTHSYQKGVLTDDKAGFNAYYLSDTEKIDSTTKHTYLAIRGSDGIGLDTLNDWVSNNAMFAVSNKYIPQAKLANKAMKEKIAELKGKAPGAIIDVTGHSLGTIVSSQAVVNLSYAELENVGQVVLFDGPDVSRSLEKMEGISAKKIQEAGKHVTYYVNPFDIVSMLNREKP”, the entry is “failed”.
